According to the nanobody polyreactivity screen of Harvey et al. (2022):

Test: yeast display, Sf9 membrane polyspecificity reagent, FACS + sequencing; frameworks hold sequencing errors
Procedure, shortened: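 Galactose-induced (36–48 hours) yeast carrying a synthetic nanobody display library were exposed to 10% biotinylated, detergent-solubilized Sf9 membrane reagent at 4 °C for 1 hour. FACS followed streptavidin microbead enrichment, using low and high (top ~1%) gates for expression (anti-HA) and reagent binding (streptavidin). Colony PCR, MiSeq 2 × 250 sequencing and CDR-length filtering followed. Labels for polyreactivity reflect the gate of origin.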

Sequence	polyreactivity (PSR sort gate)
QVQLVESGGGLVQAGGSLRLSCAASGSTFYVYAMGWYRQAPGKERELVAAIRGGGSTNYADSVKGRFTISRDNAKNTVYLQMNSLKPEDTAVYYCAKLPYTRTYLGSLYDYWGQGTQVTVSS	high polyreactivity
QVHRVESGGRLVPAGGSLRLSCAASGFTFSVNAMGWYTPPPGKEMELVAAISSGGSTSYADSVKGRFTISRDNAKNTVYLQMNSLKPEDTAVYYCAAEYHSAGSLYTYSKYYHWGQGTQVTVSS	low polyreactivity
QVQLVESGGGLVQAGGSLRLSCAASGSTFTHYAMGWYRQAPGKERELVAAITSSGGSTYYADSVKGRFTISRDNAKNTVYLQMNSLKPEDTAVYYCAARGSYRNRYRHDYWGQGTQVTVSS	high polyreactivity
QVQLVESGGGLVQAGGSLRLSCAATGLIFRSYAMGWYRQAPGKDRELVARISIRGGSTYYADSVKGRFTISRDNAKNTGSLQMNSLKPEDTAVYYCAAVGSFRGYRYDYWGQGTQVTVSS	high polyreactivity
QVQLVDSGGGLDQAGGSLRLSCAASGLTFAYNTMGWYRQAPGKERELVADISRSAGSTYYADSVKVRFTISRDNAKNTVFLQMNSLKPDDTAVYYCNAAPYYVLYLLWSSNTYDYWGQGTQVTVSS	high polyreactivity
QVQLVESGGGLVQAGGSLRLSCAASGSIFKANAMGWYRQAPGKERELVATITSSGTRTYYADSVKGRFTISRDNAKNTVYLQMNSLKPEDTAVYYCNARAYPYQRGRYGYWGQGTQVTVSS	high polyreactivity
QVQLVESGGGLVQAGGSLRLSCAASGIIVSYYAMGWYRQAPGKERELVAAITSGGSTNYADSVKGRFTISRDNAKITVYLQMNSLKPEDTAVYYCAAERGDTAYRKYDYWGQGTQVTVSS	low polyreactivity
QVQLVESGGGLVQAGGSLRLSCAASGSTFSDNAMGWYRQAPGKDRELVAAINYSDGSTNYADSVKGRFTISRDNAKNTVYLQMNSLKPEDTAVYYCAVDIYFWCYGWWGPYDYWGQGTQVTVSS	low polyreactivity
QVQLVESGGGLVQAGGSLRLSCAASGGTFFTNAMGWYRQAPGKERELVAVITGSGGRTYYADSVKGRFTISRDNAKNTVYLQMNSLKPEDTAVYYCAARGYSWGQGTQVTVSS	high polyreactivity
QVQLVESGGGLVQAGGSLRLSCAASGSIFKSNGMGWNRQAPGKERELVAAITGSGGTTYYADSVKGRFTISRDYAKNTVYLQMNSLKPEDTAVYYCAAVNYYWGQGTQVTVSS	low polyreactivity
HVQLVESGGGLVQAGGSLRLSCAASGFIFVFYDMGWYRPAPGKERELVAGITRNDGSTYYADSVKGRFKISRDNAKNTVYLQMNSLKPEDTAVYYCAADRVRRNDKLAYDYWGQGTQVTVSS	low polyreactivity
QVQLVESGGGLVQAGGSLRLSCAASGFTFTRYAMGWYRQAPGKERELVADITRSGGTTYYADSVKGRFTISRDNAKNTVYLQMNSLKPEDTAVYYCAADTYSHGRYYRMDYWGQGTQVTVSS	high polyreactivity
QVQLVESGGGLVQAGGSLRLSCAASGRIFDVYAMGWYRQAPGKERELVAGITYSGGSTYYADSVKGRFTISRDNAKNTVYVQMNSLKPEDTAVYYCAALNGDPYVQLLEDYWGQGTQVTVSS	low polyreactivity
QVQLVESGGGLVQAGGSLRLSCAASGRIFADNAMGWYRQAPGKERELVADITYSGGSTYYADSVKGRFTISRDNAKNTVYLQMNSLNPEDTAVYYCAKQGVDYWGQGTQVTVSS	low polyreactivity
QVHLVESGGGLVQAGGSLRLSCAASGRIFRRNTMGWYRQAPGKERELVAAITSSGGSTYADSVKGRFTISRDNAKNTVYLQMNSLKPEDTAVYYCATYVAYHRGYRTYDHWGQGTQVTVSS	low polyreactivity
QLQLQESGGGLVQAGGSLRLSCAASGSISHYIFMGWYRKAPGKEREFVAGIGYGGTTNYADSVKGRFTISRDNAINNVYLQMNSLKPEDTAMYYCAAREATEFYLYYWGQGTQVTVSS	low polyreactivity
QVQLVESGGGLVQAGGSLRLTCAASGSTSPANTMGWYRQAPGKETEFVAGISRRGGRTYYADSVKGRFTISRDNAKNTVYLQMNSLKPEDTAVFYCATALIVRCPSRYEYWGQGTQVTVSS	high polyreactivity
QVQLVESGGGLVQAGGSLRLSCAASGYIFRWYAMGWYRQAPGKERELVARITNGARTYYADSVKGRFTISRDNAKNTVYLQMNSLKPEDTAVYYCAATVPPTYRRYYYWGQGTQVTVSS	high polyreactivity
QVQLVESGGGLVQAGGSLRLSCAASGRIFHYNAMGWYRQAPGKEREFVASISGSGGRTYYADSVKGRFTISRDNAKNTVYLQMNSLKPEDTAVYYCAASYYGHRYWGQGTQVTVSS	low polyreactivity
QLQLEESGGGLVQAGGSLRLSCAASVRTLRRNAMGWYRQAPGKEKELVAAITGSGGSTYYADSVKGRFTISRDNAKNTVYLQMNSLKPEDTAVYYCAARGPSRRRDGSDYWGQGTQVTVSS	high polyreactivity
QVQLVESGGGLVQAGGSLRLSSAASGSTVPRYAMGWDRQAPGKERAFVAVIWSGGSTYYAVSVKGRFTISRDNAKNTVYLQMNSLKPEDTAVYYCAAEYHTLSKYSGYATHDYWGQGTQVTVSS	low polyreactivity
QVQLVESGGGLVQAGGSLRLSCAASGFTFKYYDMGWYRQAPGKERELVAAIDTSGGNTYYADSVKGRFTISRDYAKNTVYLQMNSLKPEDTAVYYCAATVPYYHDDYWGQGTQVTVSS	low polyreactivity

Sequence	polyreactivity (PSR sort gate)
QVQLEESGGGLVQAGGSLRLSCAASGGILDTYAMGWYRPAPWKETELVAANTSGCNTNYADSVKGRFTISRDNAKNTVYLQMISLKQEDTEVYYCNLVTWYYVFRPWEYDYCGQGTQVTVSS	low polyreactivity
QVQLVESGGGLVQAGGSLRLSCAASGIFSHYALGWYRQAPGKERELVAAISSSGGRTYYADSVKGRFTISRDNAKNTVYLQMNSLKPEDTAVYYCAAPWRSSPYHFYYWGQGTQVTVSS	high polyreactivity
QVQLVESGGGLVQAGGRLRLSCAASGRIFYNYAMGWYRQAPGKERELVAAISVSGGSTYYADSVKGRFTISRDNAKNTVYLQMISMKPEDTAVYYCATYSSRQRKSSYYYGGQGTQVTVSS	high polyreactivity
QVQLVESGGGLVQAGGSLRLSCAASGRIFGLYAMGWYRQAPGKERELVAAINRTGNTNYADSVKGRFTISRDNAKNTVYLQMNSLKPEDTAVYYCAARFPYWRRYDYWGQGTQVTVSS	high polyreactivity
QVQLVESGGGLLQAGGSLRLSCAASGITFYYNTMGWYRQAPGKERELVASISGGCSTYYADSVKGRFTISRDNAKNTVFLQMKSLIPEDTAVYYCNAQGSLFRGWFDYDYWGQGTQVTVSS	low polyreactivity
QVQLVESGGGLVQAGGSLRLSCAASGSIFRAYAMGWYRQAPGKERELVATIRKSGGSTYYADSVKGRFTISRDNAKNTVYLQMNSLKPEDTAVYYCAARTIRYVNFYYWGQGTQVTVSS	high polyreactivity
QVQHVESGGGLVQAGGSLRLSCAASGGIFYYNTMGWYRQAPGKERELVAAITGGGRTNYADSVKGRFTISRDNAKNTVYLQMNSLKPEDTAVYYCNAVYWRTRMDYWGQGTQVTVSS	high polyreactivity
QVQLVESGGGLDQAVGSLRLSCAASGSIFKPYAMGWYRQAPGKERELVAGITAGGGSTYYADSVKGRFTISRDNAKNTVYLQMNSLKPEDTAVYYCSVDPYNIFTDDIVENDYWGQGTQVTVSS	low polyreactivity
QGQHVESGGGLVQAGGSLRLSCAASGTFVYAMGWYRQAPGKERELVAAISYSGGSTYYADSVKGRFTISRDNAKNTVYLQMNSLKPEDTAVFYCNVLGWYYTTTKYDYWGQGTQVTVSS	high polyreactivity
QVQLVESGGGLVQAGGSLRLSCAASGSTFSLYAMGWYRQAPGKERELVAAITYSGTSTYYADSVKGRFTISRDNAKNTVYLQMNSLKPEDTAVYYCNVESWGGHDFTWAVTSGGYWGQGTQVTVSS	low polyreactivity
QDQHVESGGGLVQAGGSLRLSCAASGSTFDAYAMGWYRQAPGKERELVAAISWSDTTTYYADSVKGRFTISRDNAKNTVYLQMNSLKPEDTAVYYCADEYYFTEGSYTSDYWGQGTQVTVSS	high polyreactivity
QVQLVESGGGLVQAGGSLRLSCAASGSIFKRNAMGWYRQAPVKETELVAAITRSGSSTYYADSVKGRFKISRDNAKNTVYLQFNSLKPEDTSVYYCAAQYESNGYTGYYWGQGTQVSVSS	high polyreactivity
QVQLVESGGGLVQAGGSLRLSCAASGRIFRAYAMGWYRQAPGKERELVASISRSGGSTYYADSVKGRFTISRDNSKNTVYLQMYSLKPEDTAVYYCAAVQPVGLYPRTKYYYCGQGTQVTVSS	high polyreactivity
QVQLVESGGGLVQAGGILRLSCAASGRTFGLYAMGWYRQAPGKERELVASITRSGVSTTYADSVKGRFTISRDNAKNTVYLQMNSLKPVDTAVYYCNTDYTGPDGTDEYDYWGQGTQVTVSS	low polyreactivity
QVQLVESGGGLLQAGGSLRLSCASSGLIFLGYTMGRYIQAPGKERELVAAISRRGGRTYYADSVKGLFTISRDNAKNTVYLLMNSLKPEDTAVYYCNADITSSGPKSDYWGQGTQVTVSS	high polyreactivity
QVQLVESGGGLVQAGGSLRLSCAASGFIFEAYAMGWYRQAPGKERELVAAIDSGGSTDYADSVKGRFTISRDNAKNTVYLQMNSLTPEDTAVYYCIAERAYLLWYNFDYWGQGTKVTVSS	low polyreactivity
QVQLVESGGGLVQAGGSLRLSCAASGRIFRGYAMGWYRQAPGKERELVAAISGRGGRTNYADSVKGRFTISRDNAKNTVYLQMNSLKPEDTAVYYCATVPYTASRYEYWGQGTQVTVSS	high polyreactivity
QVQLVESGGGLVQAGGSLRLSCAASGSIFPHYAMGWYRQAPGKERELVAAISRSGTSTYYADSVKGRFTISRDNAKNTVYLQMNSLKPEDTAVYYCAAGYWFSYSRVTRYDYWGQGTQVTVSS	high polyreactivity
QVQLVESGGGLVQAGGSLRLSCAASGRIFDGYAMGWYRQAPGKERELVAAINRSGSSTYYADSVKGRFTISRDNAKNTVYLQMNSLKPEDTAVYYCNARSGNRYGPRYDYWGQGTQVTVSS	high polyreactivity
QVQLVESGGGLVQAGGSLRLSCAASGFTFKYYAMGWYRQAPGKERELVARISWSGGSTYYADSVKGRFTISRDNAKNTFFLQMNSLKPEDTAVYYCNTDFGYGFDYWGQGTQVSVSS	high polyreactivity
QVQLVESGGGLVQAGGSLRLSCAASGSTFSRYAMGSYRQAPGKERELVAAITGTGGRTYYADSVKGRFTISRDNAKNTVYLQMNSLKPEDTAVYYCAAQRWTVKYNYWGQGTQVTVSS	high polyreactivity
